Molecular target: T1, UnCas12f1 (Un1Cas12f1) (UniProt A0A482D308)
T1 sequence: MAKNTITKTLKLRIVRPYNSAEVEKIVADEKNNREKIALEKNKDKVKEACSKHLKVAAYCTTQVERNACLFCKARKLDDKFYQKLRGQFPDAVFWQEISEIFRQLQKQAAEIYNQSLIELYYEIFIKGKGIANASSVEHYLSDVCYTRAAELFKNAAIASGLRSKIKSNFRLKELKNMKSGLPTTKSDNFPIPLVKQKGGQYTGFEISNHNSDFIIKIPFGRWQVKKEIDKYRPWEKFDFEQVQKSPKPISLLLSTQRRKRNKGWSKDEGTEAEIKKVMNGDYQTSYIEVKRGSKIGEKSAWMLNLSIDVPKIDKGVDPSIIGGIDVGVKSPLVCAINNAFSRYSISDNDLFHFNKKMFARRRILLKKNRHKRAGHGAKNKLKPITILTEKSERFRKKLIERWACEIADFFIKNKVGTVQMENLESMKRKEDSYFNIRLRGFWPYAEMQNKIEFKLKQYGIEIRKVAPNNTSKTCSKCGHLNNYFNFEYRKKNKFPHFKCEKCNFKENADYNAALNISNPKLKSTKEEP
Assay: cell_activity

## ACCGCUUCACUUAGAGUGAAGGUGGGCUGCUUGCAUCAGCCUAAUGUCGAGAAGUGCUUUCUUCGGAAAGUAACCCUCGAAACAAAGAAAGGAAUGCAACNNNNNNNNNNNNNNNNNNNNUUUUAUUUUUUUAGCUAGAUAAACUUGGGCU / TTTATAGCTAGATAAACTTGGGCT / AGCCCAAGTTTATCTAGCTATAAA [ge4.1-R16 sgRNA ; DMD R16 target]
PAM TTTR (TTTA), HEK293, AC16 29.76
  activity: 58.8 % indel

## ACCGCUUCACUUAGAGUGAAGGUGGGCUGCUUGCAUCAGCCUAAUGUCGAGAAGUGCUUUCUUCGGAAAGUAACCCUCGAAACAAAGAAAGGAAUGCAACNNNNNNNNNNNNNNNNNNNNUUUUAUUUUUUCUCAUUCUCAUGCCUGGACA / TTTGCTCATTCTCATGCCTGGACA / TGTCCAGGCATGAGAATGAGCAAA [ge4.1-F142 sgRNA ; DMD F142 target]
PAM TTTR (TTTG), HEK293, AC16 19.18
  activity: 50 % indel

## ACCGCUUCACCAAAAGCUGUCCCUUAGGGGAUUAGAACUUGAGUGAAGGUGGGCUGCUUGCAUCAGCCUAAUGUCGAGAAGUGCUUUCUUCGGAAAGUAACCCUCGAAACAAAGAAAGGAAUGCAACNNNNNNNNNNNNNNNNNNNNUUUUAUUUUUUCUCAUUCUCAUGCCUGGACA / TTTGCTCATTCTCATGCCTGGACA / TGTCCAGGCATGAGAATGAGCAAA [ge4.0-F142 sgRNA ; DMD F142 target]
PAM TTTR (TTTG), HEK293, AC16 48.08
  activity: 54 % indel

## ACCGCUUCACCAAAAGCUGUCCCUUAGGGGAUUAGAACUUGAGUGAAGGUGGGCUGCUUGCAUCAGCCUAAUGUCGAGAAGUGCUUUCUUCGGAAAGUAACCCUCGAAACAAAGAAAGGAAUGCAACNNNNNNNNNNNNNNNNNNNNUUUUAUUUUUUCUCUCCUAGACCAUUUCCCA / TTTGCTCTCCTAGACCATTTCCCA / TGGGAAATGGTCTAGGAGAGCAAA [ge4.0-R52 sgRNA ; DMD R52 target]
PAM TTTR (TTTG), HEK293, AC16 36.47
  activity: 46.1 % indel

## ACCGCUUCACUUAGAGUGAAGGUGGGCUGCUUGCAUCAGCCUAAUGUCGAGAAGUGCUUUCUUCGGAAAGUAACCCUCGAAACAAAGAAAGGAAUGCAACNNNNNNNNNNNNNNNNNNNNUUUUAUUUUUUACUGACUACUCCCCAAGUAU / TTTGACTGACTACTCCCCAAGTAT / ATACTTGGGGAGTAGTCAGTCAAA [ge4.1-F110 sgRNA ; DMD F110 target]
ge4.1, PAM TTTG, HEK293, 5 days, no editing detected
  activity: 0 % indel

Reference: patent US20250361529
